From PMC10471632, “Protein engineering and iterative multimodule optimization for vitamin B6 production in Escherichia coli” (Nature Communications, 2023)

Tests used:
Experiment in all cases: NADH formation at A340
NADH formation at A340 [1] = substrate: NC(=O)c1ccc[n+]([C@@H]2O[C@H](COP(=O)(O)OP(=O)(O)OC[C@H]3O[C@@H](n4cnc5c(N)ncnc54)[C@H](O)[C@@H]3O)[C@@H](O)[C@H]2O)c1; assay type: biochemical, Escherichia coli; conditions: E4P 8 mM, 50 mM PPi buffer pH 8.6, 1 mM DTT, 37 °C, varied: cofactor
Source text: (§1) NADH formation at A340 on Eco_Epd

NADH formation at A340 [2] = substrate: O=C[C@H](O)[C@H](O)COP(=O)(O)O; assay type: biochemical, Escherichia coli; conditions: NAD+ 2 mM, 50 mM PPi buffer pH 8.6, 1 mM DTT, 37 °C
Source text: as §1

NADH formation at A340 [3] = substrate: NC(=O)c1ccc[n+]([C@@H]2O[C@H](COP(=O)(O)OP(=O)(O)OC[C@H]3O[C@@H](n4cnc5c(N)ncnc54)[C@H](O)[C@@H]3O)[C@@H](O)[C@H]2O)c1; assay type: biochemical, Brumicola nitratireducens; conditions: E4P 8 mM, 50 mM PPi buffer pH 8.6, 1 mM DTT, 37 °C, varied: cofactor
Source text: (§2) NADH formation at A340 on […]

NADH formation at A340 [4] = substrate: O=C[C@H](O)[C@H](O)COP(=O)(O)O; assay type: biochemical, Brumicola nitratireducens; conditions: NAD+ 2 mM, 50 mM PPi buffer pH 8.6, 1 mM DTT, 37 °C
Source text: as §2

B1: Eco_Epd (Escherichia coli K-12) (protein)
chain: TVRVAINGFGRIGRNVVRALYESGRRAEITVVAINELADAAGMAHLLKYDTSHGRFAWEVRQERDQLFVGDDAIRVLHERSLQSLPWRELGVDVVLDCTGVYGSREHGEAHIAAGAKKVLFSHPGSNDLDATVVYGVNQDQLRAEHRIVSNASCTTNCIIPVIKLLDDAYGIESGTVTTIHSAMHDQQVIDAYHPDLRRTRAASQSIIPVDTKLAAGITRFFPQFNDRFEAIAVRVPTINVTAIDLSVTVKKPVKANEVNLLLQKAAQGAFHGIVDYTELPLVSVDFNHDPHSAIVDGTQTRVSGAHLIKTLVWCDNEWGFANRMLDTTLAMATVAFR
Km (NADH formation at A340 [1]): 717 µM | kcat (NADH formation at A340 [1]): 3.23 s⁻¹ | kcat/Km (NADH formation at A340 [1]): 4510 M⁻¹ s⁻¹ | Km (NADH formation at A340 [2]): 969 µM | kcat (NADH formation at A340 [2]): 0.15 s⁻¹ | kcat/Km (NADH formation at A340 [2]): 155 M⁻¹ s⁻¹

B2: Gni_Epd (Brumicola nitratireducens FR1064) (protein)
chain: MLRIAINGFGRIGRNVLRALYESGRNDQIQVVAINEIASPEGVAHLLKYDTAHGRFKGTVDYTDQCLIVNGDKIPLFQKNNIEELAWSTVNVDIVLECTGVFSSRESAQQHIDNGARKVLFSQPCGQDMDATIVFGVNHKTLKPSDVIVSNGSCTTNCIVPIIQVLDEAFGVESGTITTIHSSMNDQQVIDAYHPDLRRTRAASQSIIPVDTRLHVGIERILPRFAGKFEAIAVRVPTINVTAMDLSVTLRDKVTVSDVNAVLKKSAHGELKRIIDYTEEPLVSVDFNHDPHSSIVDGTQTRVSHKQLVKTLVWCDNEWGFANRMLDTALHMHQLDS
Km (NADH formation at A340 [3]): 51 µM | kcat (NADH formation at A340 [3]): 0.313 s⁻¹ | kcat/Km (NADH formation at A340 [3]): 6140 M⁻¹ s⁻¹ | Km (NADH formation at A340 [4]): 737 µM | kcat (NADH formation at A340 [4]): 0.323 s⁻¹ | kcat/Km (NADH formation at A340 [4]): 438 M⁻¹ s⁻¹
